From patent US20170183660, “APTAMER TARGETING MAGE-A3 PEPTIDE AND USES THEREOF” (Academia Sinica, published 2017)

T1: MAGE-A3 peptide 111-125 (unmodified) (UniProt P43357)
T1 chain: RKVAELVHFLLLKYR

T2: NY-ESO-1 peptide 157-170 (UniProt P78358 P78358:157-170)
T2 chain: SLLMWITQCFLPVF

T3: NY-ESO-1 peptide 87-111 (UniProt P78358 P78358:87-111)
T3 chain: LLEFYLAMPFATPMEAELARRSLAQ

B1: Ap16 (ssDNA)
DNA: AGCACTCAATATTCCC
B2: Ap52 (ssDNA)
DNA: ATCCAGAGTGACGCAGCAAGCACTCAATATTCCCTGGACACGGTGGCTTAGT

Legend:
[1] = target: T1, MAGE-A3 peptide 111-125 (unmodified); test: ITC; 25 C, DPBS with 0.45% glucose, 5 mM MgCl2; dH -41 kcal/mol; conditions: protein: synthetic; tags: none; peptide (synthetic, inferred)
Description: (§1) Thermodynamic profile of the interaction between DNA and peptide was measured with a MicroCal iTC₂₀₀ (GE Healthcare Life Sciences) at 25° C. in washing buffer (0.45% glucose, 5 mM MgCl₂, in Dulbecco's Phosphate-Buffered Saline). The unmodified MAGE-A3₁₁₁₋₁₂₅ peptide (0.3 mM, 200 μl) was titrated with 18 successive injections of 2 μl aptamer (0.1 mM) at 150 s intervals. The data were analyzed using MicroCal Origin 7 and fit with a one-set-of sites binding model to obtain values of enthalpy change (AH) and association constant (Kₐ).

[2] = target: T1, MAGE-A3 peptide 111-125 (unmodified); test: ITC; 25 C, DPBS with 0.45% glucose, 5 mM MgCl2; dH -24 kcal/mol; conditions: protein: synthetic; tags: none; peptide (synthetic, inferred)
Description: as §1

[3] = target: NY-ESO-1 peptide 119-143 (UniProt P78358 P78358:119-143); test: pulldown; specificity control peptide; conditions: protein: synthetic; tags: peptide (synthetic, inferred), streptavidin beads
[4] = target: T2, NY-ESO-1 peptide 157-170; test: pulldown; specificity control peptide; conditions: protein: synthetic; tags: peptide (synthetic, inferred), streptavidin beads
[5] = target: T3, NY-ESO-1 peptide 87-111; test: pulldown; specificity control peptide; conditions: protein: synthetic; tags: peptide (synthetic, inferred), streptavidin beads

| Binder | Kd [1] [nM] | Kd [2] [nM] | binding result [3] | binding result [4] | binding result [5] |
| --- | --- | --- | --- | --- | --- |
| B1 | 95 |  |  |  |  |
| B2 |  | 57 | no binding | no binding | no binding |
